The values that follow come from patent US20110150914A1, “COMPOSITIONS AND METHODS FOR DENGUE VIRUS (DV) TREATMENT AND VACCINATION” (priority 2008, published 2011).

The target of assay [1] is H-2 K^b (mouse; human), P61769.
The target in assay [2] is H-2 D^b (mouse; human), P61769.

As for MTMRCIGI (modifications not checked) [E-2-6], the half-inhibitory concentration (IC50) (commonly the concentration at which inhibition is half-maximal) in assay [1] came to 1080 nM.
For TAIANQATV (modifications not checked) [NS4B66-74], the IC50 in assay [2] was 1.3 nM; in assay [1], over 2000 nM.
In the case of VAFLRFLTI (modifications not checked) [C51-59], the half-inhibitory concentration (IC50) in assay [2] was 1380 nM; in assay [1] it was 20 nM.
The corresponding values for RALIFILL (modifications not checked) [M60-67] are over 2000 nM and 22 nM.
In assay [2], FSLGVLGM (modifications not checked) [NS2A8-15] showed an IC50 of 1800 nM.
In assay [1], VSWTMKIL (modifications not checked) [E451-458] showed a 50% inhibitory concentration (IC50) of 458 nM.
With RMLINRFTM (modifications not checked) [NS5237-45], the IC50 in assay [2] was 21 nM; in assay [1] it was over 2000 nM.
For GMLQGRGPL (modifications not checked) [C36-44], the IC50 in assay [2] was 820 nM; in assay [1], 1340 nM.
The corresponding values for VAVSFVTLI (modifications not checked) [NS2A36-44] are 997 nM and 12 nM.
Regarding LAVTIMAIL (modifications not checked) [NS2A145-153], the 50% inhibitory concentration (IC50) in assay [2] was 644 nM; in assay [1], over 2000 nM.
The corresponding values for YSQVNPITL (modifications not checked) [NS4B99-107] are 1.3 nM and 1890 nM.
